According to article PMC8217511, “Tuning SAS-6 architecture with monobodies impairs distinct steps of centriole assembly” (Nature Communications, 2021):
Residue numbers refer to the chain shown, from its start. Names and notes keep the numbering of the source.

B1: CrSAS-6_N, N-terminal globular domain of Chlamydomonas reinhardtii SAS-6 (domain or fragment, UniProt A9CQL4 1-159, looked up)
chain: MPLLLDDGDPKAQTGFDLSTATTLFWRPVPVHVKQQDREDVLEELTFRILTGVAKQNHNLRILRIHISSDSDLFFLHTLEVSEEDFQSLKNDQGILVDFASFPGKIISLLEKCILAQPGDSPRFQAVLTIRGGESVFKIVEINDFKQLPHITLAFRPGN
notes: SAS-6 of Chlamydomonas reinhardtii, N-terminal globular head domain, residues 1-159 (the methods list the two ranges in the reverse order of the two names); source: E. coli BL21(DE3), purified (HisTrap, tag cleavage by protease, SEC); not shown: His6, N-terminal, cleaved; AVI-tag, N-terminal, cleaved
B2: CrSAS-6_NL, N-terminal head domain and the entire coiled-coil of Chlamydomonas reinhardtii SAS-6 (domain or fragment, UniProt A9CQL4 1-503, looked up)
chain: MPLLLDDGDPKAQTGFDLSTATTLFWRPVPVHVKQQDREDVLEELTFRILTGVAKQNHNLRILRIHISSDSDLFFLHTLEVSEEDFQSLKNDQGILVDFASFPGKIISLLEKCILAQPGDSPRFQAVLTIRGGESVFKIVEINDFKQLPHITLAFRPGNDSVVKQFLAFRLSEVKGTCHDLSDDLSRTRDDRDSMVAQLAQCRQQLAQLREQYDKHLLEVQAQAKTQQASAHEERIREKSQLKDQFEKERGEMEGRYRDQIAALNTRLGELDTENRKLREVKYELDTKVSELSHKLGSSEGSNRSLEEETARLRSLNQQLSSSKHELEIQLNEAKAKVLALDEKAQSQGDVIEQQRGRLRDMEAALRQTEQRCADLRDTLASAEGRAKEAQAEVLKGNQAIEKLTNDLRLAKEKTKRKAAIILRQEEELQEREQSLANATRDVGVLGQQAESLRKDVASLHSENDSLRSKLEDSKQQLQSNEQMIRWLNQQVTEAQLHASGAT
notes: SAS-6 of Chlamydomonas reinhardtii, N-terminal head domain and entire coiled-coil, residues 1-503; pFLOAT2-His vector, PreScission Protease site after the His tag; homodimers that assemble into ring polymers; source: E. coli BL21(DE3), purified (HisTrap, SEC)
B3: CrSAS-6_6HR-[F145E] (domain or fragment, Chlamydomonas reinhardtii, UniProt A9CQL4 1-226, looked up)
chain: MPLLLDDGDPKAQTGFDLSTATTLFWRPVPVHVKQQDREDVLEELTFRILTGVAKQNHNLRILRIHISSDSDLFFLHTLEVSEEDFQSLKNDQGILVDFASFPGKIISLLEKCILAQPGDSPRFQAVLTIRGGESVFKIVEINDEKQLPHITLAFRPGNDSVVKQFLAFRLSEVKGTCHDLSDDLSRTRDDRDSMVAQLAQCRQQLAQLREQYDKHLLEVQAQAKT
notes: SAS-6 of Chlamydomonas reinhardtii, residues 1-226 (limits as for CrSAS-6_6HR) with F145E; arranged as homodimers in the crystal; also called CrSAS-6_6HR harboring the mutation F145E; source: E. coli BL21(DE3), purified (HisTrap, tag cleavage by protease, SEC); not shown: His6, N-terminal, cleaved; AVI-tag, N-terminal, cleaved
B4: CrSAS-6_6HR, N-terminal domain and six heptad repeats of the coiled-coil of Chlamydomonas reinhardtii SAS-6 (domain or fragment, UniProt A9CQL4 1-226, looked up)
chain: B3 chain with E145F
notes: homodimer through the coiled-coil; source: E. coli BL21(DE3), purified (HisTrap, tag cleavage by protease, SEC); not shown: His6, N-terminal, cleaved; AVI-tag, N-terminal, cleaved

What was measured:
[1] = biological target: the molecule itself; assay: crystal structure; CrSAS-6 combined with a 2x molar excess of monobody, complex purified by SEC; sitting drop vapor diffusion at 18 °C
[2] = biological target: the molecule itself; assay: PORT-HS-AFM; CrSAS-6_NL adsorbed on mica, 11-16 nM (equilibrium) or 44 nM (assembly reaction); 150 mM KCl, 20 mM Tris-HCl pH 8.0; monobodies at 6.8 µM, 14.5 µM and 12.9 µM

Protein	binding result [1]	binding result [2]
B1	binds	
B2		binds
B3	binds	
B4	binds	
